# Test results reported in US20230265151A1, “GIP/GLP1 CO-AGONIST COMPOUNDS” (priority 2020, published 2023).
# Changes are numbered by the printed parent chain.
# T1: human glucose-dependent insulinotropic polypeptide (GIP) receptor (human, UniProt P48546 22-466)
# T1 sequence (looked up): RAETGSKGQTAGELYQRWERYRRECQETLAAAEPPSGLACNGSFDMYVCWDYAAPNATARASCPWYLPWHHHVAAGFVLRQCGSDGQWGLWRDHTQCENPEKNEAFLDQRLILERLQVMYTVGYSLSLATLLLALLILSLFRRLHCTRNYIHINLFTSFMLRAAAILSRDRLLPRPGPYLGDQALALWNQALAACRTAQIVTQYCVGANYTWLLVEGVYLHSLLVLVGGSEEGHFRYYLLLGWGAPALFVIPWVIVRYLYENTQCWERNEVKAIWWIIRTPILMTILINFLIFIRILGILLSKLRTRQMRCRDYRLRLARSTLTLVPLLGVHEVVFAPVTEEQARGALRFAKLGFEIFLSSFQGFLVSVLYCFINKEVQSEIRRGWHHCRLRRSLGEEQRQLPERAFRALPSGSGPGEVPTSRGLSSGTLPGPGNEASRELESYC
# T2: human GIP receptor (human, UniProt P48546 22-466)
# T2 sequence (looked up): T1 sequence (looked up)
# B1: Example 200 (peptide)
# peptide: YXEGTXTSDYXIXLDXKAQXEFIXXLIEGGKSSGAPPPS
# modifications: Aib2, αMeF(2F)6, Dap11, αMeL13, Orn16, K17(Z), Aib20, D-Glu24, αMeY25, K31(Z), C-terminal NH2; Z = AEEA2-(γ-Glu)-CO-(CH2)12-CO2H
# B2: Example 224 (peptide)
# peptide: B1 peptide with Y10X, X11S, E28K, K31P
# modifications: Aib2, αMeF(2F)6, 4Pal10, αMeL13, Orn16, K17(Z), Aib20, D-Glu24, αMeY25, K28(Z), C-terminal NH2; Z = AEEA3-(γ-Glu)-CO-(CH2)12-CO2H
# B3: Example 255 (peptide)
# peptide: B1 peptide with Y10X, X11S, E21K, K31P
# modifications: Aib2, αMeF(2F)6, 2Nal10, αMeL13, Orn16, K17(Z), Aib20, K21(Z), D-Glu24, αMeY25, C-terminal NH2; Z = AEEA2-CO-(CH2)12-CO2H
# B4: Example 210 (peptide)
# peptide: B1 peptide with Y10X, X11S, E28K, K31P
# modifications: Aib2, αMeF(2F)6, 4Pal10, αMeL13, Orn16, K17(Z), Aib20, D-Glu24, αMeY25, K28(Z), C-terminal NH2; Z = AEEA2-CO-(CH2)12-CO2H
# B5: Example 259 (peptide)
# peptide: B1 peptide with Y10X, X11S, E21K, K31P
# modifications: Aib2, αMeF(2F)6, OMeY10, αMeL13, Orn16, K17(Z), Aib20, K21(Z), D-Glu24, αMeY25, C-terminal NH2; Z = AEEA2-(γ-Glu)-CO-(CH2)12-CO2H
# B6: Example 214 (peptide)
# peptide: B1 peptide with Y10X, X24K, K31P
# modifications: Aib2, αMeF(2F)6, 4Pal10, αMeS11, αMeL13, Orn16, K17(Z), Aib20, K24(Z), αMeY25, C-terminal NH2; Z = AEEA2-(γ-Glu)-CO-(CH2)12-CO2H
# B7: Example 250 (peptide)
# peptide: B1 peptide with Y10X, X11S, E28K, K31P
# modifications: Aib2, αMeF(2F)6, 2Nal10, αMeL13, Orn16, K17(Z), Aib20, D-Glu24, αMeY25, K28(Z), C-terminal NH2; Z = AEEA2-(γ-Glu)-CO-(CH2)12-CO2H
# B8: Y-Aib-EGT-αMeF(2F)-TSD-4Pal-SI-αMeL-LD-Orn-IAQ-Aib-EFIK((2-[2-(2-Amino-ethoxy)-ethoxy]-acetyl)2-CO-(CH2)12-CO2H)-αMeY-LIEGGK((2-[2-(2-Amino-ethoxy)-ethoxy]-acet … (peptide)
# peptide: B1 peptide with Y10X, X11S, K17I, X24K
# modifications: Aib2, αMeF(2F)6, 4Pal10, αMeL13, Orn16, Aib20, αMeY25; acylated K24, K31 (groups as in name); C-terminal amide
# B9: Example 208 (peptide)
# peptide: B1 peptide with Y10X, X11S, E28K, K31P
# modifications: Aib2, αMeF(2F)6, 4Pal10, αMeL13, Orn16, K17(Z), Aib20, D-Glu24, αMeY25, K28(Z), C-terminal NH2; Z = AEEA-(γ-Glu)-(4-(4-tert-butylphenyl)butanoyl)
# B10: Example 256 (peptide)
# peptide: B1 peptide with Y10X, X11S, E28K, K31P
# modifications: Aib2, αMeF(2F)6, 2Nal10, αMeL13, Orn16, K17(Z), Aib20, D-Glu24, αMeY25, K28(Z), C-terminal NH2; Z = AEEA2-CO-(CH2)12-CO2H
# Legend:
# Assay in all cases: cell-based or functional assay
# [1] = target: T1, human glucose-dependent insulinotropic …
# [2] = target: human glucagon-like peptide-1 (GLP-1) receptor (human, UniProt P43220 24-463)
# [3] = target: human glucagon receptor (human, UniProt P47871 26-477)
# [4] = target: T2, human GIP receptor
# [5] = target: human glucagon receptor (human, UniProt P47871 26-477); remark: listed apart in the source
binder,measurement,setting,value
B1,cAMP EC50,[1],0.0503 nM
same,cAMP Emax,[1],96.3%
same,cAMP EC50,[2],0.834 nM
same,cAMP Emax,[2],93.7%
same,cAMP EC50,[3],> 9950 nM
B2,cAMP EC50,[1],0.0374 nM
same,cAMP EC50,[2],7.51 nM
same,cAMP Emax,[2],88.4%
same,cAMP EC50,[3],> 9950 nM
B3,cAMP EC50,[1],0.0213 nM
same,cAMP EC50,[2],0.357 nM
same,cAMP EC50,[3],> 9950 nM
B4,cAMP EC50,[1],0.02 nM
same,cAMP EC50,[2],0.57 nM
same,cAMP EC50,[3],> 9950 nM
B5,cAMP EC50,[1],0.0198 nM
same,cAMP EC50,[2],0.362 nM
same,cAMP EC50,[3],> 9950 nM
B6,cAMP EC50,[1],0.0351 nM
same,cAMP Emax,[1],93.7%
same,cAMP EC50,[2],0.618 nM
same,cAMP Emax,[2],93.2%
same,cAMP EC50,[3],> 9950 nM
B7,cAMP EC50,[1],0.021 nM
same,cAMP EC50,[2],0.414 nM
same,cAMP EC50,[3],> 9950 nM
B8,cAMP EC50 (1.0% HSA),[4],1.47 nM
same,cAMP EC50 (1.0% HSA),[5],> 9950 nM
B9,cAMP EC50,[1],0.018 nM
same,cAMP EC50,[2],0.238 nM
same,cAMP EC50,[3],> 9950 nM
B10,cAMP EC50,[1],0.0175 nM
same,cAMP EC50,[2],0.249 nM
same,cAMP EC50,[3],> 9950 nM
